In publication PMC12473165 (2025):

Biological target: LysdesArg9BK (Homo sapiens, 3H label on peptide)
Assay: radioligand binding on HEK293 cells

B1: B1R (protein)
chain: MASSWPPLELQSSNQSQLFPQNATACDNAPEAWDLLHRVLPTFIISICFFGLLGNLFVLLVFLLPRRQLNVAEIYLANLAASDLVFVLGLPFWAENIWNQFNWPFGALLCRVINGVIKANLFISIFLVVAISQDRYRVLVHPMASRRQQRRRQARVTCVLIWVVGGLLSIPTFLLRSIQAVPDLNITACILLLPHEAWHFARIVELNILGFLLPLAAIVFFNYHILASLRTREEVSRTRCGGRKDSKTTALILTLVVAFLVCWAPYHFFAFLEFLFQVQAVRGCFWEDFIDLGLQLANFFAFTNSSLNPVIYVFVGRLFRTKVWELYKQCTPKSLAPISSSHRKEIFQLFWRN
Kd: 1.3 nM
